Reference: article doi:10.1101/2024.02.01.578502 (bioRxiv, 2024)
Blank lines part the entries; values can stand above or below the molecule they belong to.

How the values were obtained:
Experiment in all cases: cryo-EM structure
[1] = biological target: dihydrolipoyl transacetylase (E2) (porcine (endogenous in porcine heart mitochondria))
[2] = biological target: dihydrolipoamide dehydrogenase-binding protein (E3BP) (porcine (endogenous in porcine heart mitochondria))
[3] = biological target: the molecule itself

N, LD per E1 heterotetramer [1]: 1
N, PSBD per E1 heterotetramer [1]: 1
percent of E1 heterotetramers with additional density (LD) [1]: 82%
ratio of E1 with LD bound to E1 without LD bound [1]: 4.5 times
Molecule: pyruvate dehydrogenase (E1) α2β2 heterotetramer (from UniProt P29804 31-390) (complex)

stoichiometry N [1]: 60
Molecule: dihydrolipoyl transacetylase (E2) (enzyme)

stoichiometry N [2]: 1
B1: dihydrolipoyl dehydrogenase (E3) dimer (enzyme, UniProt P09623 36-509, looked up)
chain: ADQPIDADVTVIGSGPGGYVAAIKAAQLGFKTVCIEKNETLGGTCLNVGCIPSKALLNNSHYYHMAHGKDFASRGIEMSEVRLNLEKMMEQKSNAVKALTGGIAHLFKQNKVVRVNGYGKITGKNQVTATKADGSTEVINTKNILIATGSEVTPFPGITIDEDTVVSSTGALSLKKVPEKMVVIGAGVIGVELGSVWQRLGADVTAVELLGHVGGIGIDMEVSKNFQRILQKQGFKFKLNTKVIGATKKSDGNIDVSIEAASGGKAEVITCDVLLVCIGRRPFTQNLGLEELGIELDPRGRIPVNTRFQTKIPNIYAIGDVVAGPMLAHKAEDEGIICVEGMAGGAVHIDYNCVPSVIYTHPEVAWVGKSEEQLKEEGIEYKVGKFPFAANSRAKTNADTDGMVKILGQKSTDRVLGAHIIGPGAGEMINEAALALEYGASCEDIARVCHAHPTLSEAFREANLAASFGKAINF
stoichiometry N [3]: 2
